Each block holds one binder with its values, some of them ahead of it.
What was measured:
[1] = target: T1, Kallikrein related peptidase 2 (hK2), soluble human protein (human, UniProt P20151 19-261); test: SPR, sentence summing up Table 14
T1 construct: the stated signal peptide (residues 1-18) is left out, the pro-peptide (19-24) is kept; also called KLK2; kallikrein-2
Method: (§1) Affinity of selected hK2 antibodies for soluble hK2 was measured by surface plasmon resonance (SPR). […] Antibodies were captured on a sensor chip coated with an anti-Fc antibody followed by injection of soluble hK2 at various concentrations and specified association and dissociation times. Post dissociation, the surface was regenerated with an appropriate solution to prepare for the next interaction. Kinetic information (on-rate and off-rate constants) were extracted by fitting sensorgrams to the 1:1 Langmuir model. Binding affinity (KD) are reported as the ratio of rate constants (koff/kₒₙ).

[2] = target: T1, Kallikrein related peptidase 2 (hK2), …; test: SPR, antibody captured on anti-Fc chip, soluble hK2 injected, 1:1 Langmuir fit
Method: as §1

T1 sequence (P20151 19-261): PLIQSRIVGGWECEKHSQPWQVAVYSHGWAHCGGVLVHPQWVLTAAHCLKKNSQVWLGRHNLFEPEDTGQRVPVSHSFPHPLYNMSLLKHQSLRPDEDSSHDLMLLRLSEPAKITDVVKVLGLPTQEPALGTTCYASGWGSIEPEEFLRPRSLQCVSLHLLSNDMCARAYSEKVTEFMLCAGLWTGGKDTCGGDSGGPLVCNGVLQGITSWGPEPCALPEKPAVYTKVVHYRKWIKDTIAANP

Kd [1]: < 0.5 nM
Kd [2]: 0.053 nM
B2: KL2B494 (Fab) (Fab, V domains shown)
VH: QVQLVESGGGLVQPGGSLRLSCAASGFTFSHYAMSWVRQAPGKGLEWVSTIGGSGGSTYYADSVKGRFTISRDNSKNTLYLQMNSLRAEDTAVYYCAKPHIVMVTALLYDGMDVWGQGTMVTVSS
VL: SSELTQPPSVSVAPGQTARITCGGNNIGSKSVHWYQQKPGQAPVLVVYDDSDRPSGIPERFSGSNSGNTATLTISRVEAGDEADYYCQVWDSSSDHVVFGGGTKLTVL

Kd [2]: 34.3 nM
B3: KL2B413 (scFv-LH-Fc) (Fc fusion)
scFv: EIVLTQSPSFLSASVGDRVTITCRASQGISSYLSWYQQKPGKAPKLLIYATSTLQSGVPSRFSGSGSGTEFTLTISSLQPEDFATYYCQQLNSYPRTFGQGTKVEIKGGSEGKSSGSGSESKSTGGSEVQLVESGGGLVQPGGSLRLSCAASGFTFSSYWMTWVRQAPGKGLEWVANIKQDGSERYYVDSVKGRFTISRDNAKNSLYLQMNSLRAEDTAVYYCARDQNYDILTGHYGMDVWGQGTTVTVSS
notes: scFv (VL-linker-VH) fused to an Fc; also called scFv18; KL2B413_LH; not shown: The hinge and Fc of the scFv-LH-Fc

Kd [1]: < 0.5 nM
Kd [2]: 0.078 nM
B4: KL2B467 (Fab) (Fab, V domains shown)
VH: QVQLVESGGGVVQPGRSLRLSCAASGFTFSYYGMHWVRQAPGKGLEWVAFISYDGSNKYYADSVKGRFTISRDNSKNTLYLQMNSLRAEDTAVYYCAHLPYSGSYWAFDYWGQGTQVTVSS
VL: QSVLTQPPSVSVAPGQTASITCGGDNIGSKSVHWYQQKPGQAPVLVVYDNSDRPSGIPERFSGSNSGTTATLTISRVEAGDEADYYCQVWDSSSDHPVVFGGGTKVTV

Kd [2]: 0.7 to 1 nM
B6: KL2B359 (scFv-LH-Fc) (Fc fusion)
scFv: EIVLTQSPATLSLSPGERATLSCRASESVEYFGTSLMHWYQQKPGQPPRLLIYAASNVESGIPARFSGSGSGTDFTLTISSVEPEDFAVYFCQQTRKVPYTFGGGTKVEIKGGSEGKSSGSGSESKSTGGSQVQLQESGPGLVKPSQTLSLTCTVSGNSITSDYAWNWIRQFPGKRLEWIGYISYSGSTTYNPSLKSRVTISRDTSKNQFSLKLSSVTAADTAVYYCATGYYYGSGFWGQGTLVTVSS
notes: scFv (VL-linker-VH) fused to an Fc; also called scFv20; KL2B359_LH; not shown: The hinge and Fc of the scFv-LH-Fc

The remaining lines, values behind:

B1: KL2B53 (Fab) (Fab, V domains shown)
VH: EVQLVESGGGVVQPGRSLRLSCVASGFTFSSYDIHWVRQAPGKGLEWVAIISYDGSKKDYTDSVKGRFTISRDNSKNTLYLQMDSLRVEDSAVYSCARESGWSHYYYYGMDVWGQGTMVTVSS
VL: DIVMTQSPSSLSASVGDRVTITCRASQDISNYLAWYQQKPGKVPKFLIYAASTLHSGVPSRFSGSGSGTDFTLTISSLQPEDVATYYCQKYNSAPYTFGQGTRLEIK
Kd [1]: < 0.5 nM
Kd [2]: 0.08 nM

B5: KL2B242 (Fab) (Fab, V domains shown)
VH: QVQLQESGPGLVKPSETLSLTCTVSGGSISSYYWSWLRQPAGSGLEWIGRLYVSGFTNYNPSLKSRVTLSLDPSRNQLSLKLSSVTAADTAVYYCAGDSGNYWGWFDPWGQGTLVTVSS
VL: SYELTQPPSVSVSPGETASITCSGDQLGENYACWYQQKPGQSPVLVIYQDSKRPSGIPERFSGSNSGNTATLTISGTQALDEADYYCQAWDNSIVVFGGGTKLTVL
Kd [1]: < 0.5 nM
Kd [2]: 0.04 nM

B7: KL2B30 (Fab) (Fab, V domains shown)
VH: QVQLQESGPGLVKPSETLSLTCTVSGGSISSYYWSWIRQPPGKGLEWIGYIYYSGSTNYNPSLKSRVTISVDTSKNQFSLKLSSVTAADTAVYYCAGTTIFGVVTPNFYYGMDVWGQGTTVTVSS
VL: DIQMTQSPSFLSASVGDRVTITCRASQGISSYLAWYQQKPGKAPKFLIYAASTLQSGVPSRFSGSGSGTEFTLTISSLQPEDFATYYCQQLNSYPLTFGGGTKVEIK
Kd [1]: < 0.5 nM
Kd [2]: 0.46 nM

Reference: patent publication US20250325718A1 (Janssen / Centocor, published 2025)
